Three molecules from ChEMBL document CHEMBL2074313, “Polyspecific substrate uptake by the hepatic organic anion transporter Oatp1 in stably transfected CHO cells” (Am J Physiol, 1999) can be followed below.

Holding throughout (assay type): functional, cell-based
In data set [1] the target is T1, Oatp1 (Solute carrier organic anion transporter family member 1A1) (Rattus norvegicus, UniProt P46720).
T1 sequence (P46720 whole entry): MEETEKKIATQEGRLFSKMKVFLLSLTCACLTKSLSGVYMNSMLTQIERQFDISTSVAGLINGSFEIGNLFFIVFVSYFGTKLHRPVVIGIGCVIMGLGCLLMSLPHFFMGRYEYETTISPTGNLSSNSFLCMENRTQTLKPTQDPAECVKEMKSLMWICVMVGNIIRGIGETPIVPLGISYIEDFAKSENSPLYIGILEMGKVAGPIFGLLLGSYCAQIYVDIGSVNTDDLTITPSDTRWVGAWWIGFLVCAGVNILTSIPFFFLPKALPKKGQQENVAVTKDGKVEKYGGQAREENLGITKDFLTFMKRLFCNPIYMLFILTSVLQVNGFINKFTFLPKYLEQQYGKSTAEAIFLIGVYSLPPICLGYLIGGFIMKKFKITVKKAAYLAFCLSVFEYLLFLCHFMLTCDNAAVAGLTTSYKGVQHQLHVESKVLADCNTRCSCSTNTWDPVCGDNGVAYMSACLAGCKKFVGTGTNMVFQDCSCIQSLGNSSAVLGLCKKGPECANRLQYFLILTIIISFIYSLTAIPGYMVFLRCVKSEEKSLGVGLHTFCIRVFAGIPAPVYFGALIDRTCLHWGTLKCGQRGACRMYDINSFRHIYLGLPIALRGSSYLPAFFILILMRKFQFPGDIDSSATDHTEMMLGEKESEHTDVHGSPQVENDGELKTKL
The data set can be described thus: (§1) TP_TRANSPORTER: uptake in Oatp1-expressing CHO-03 cell. The settings on record: hamster, CHO-03 cells expressing Oatp1.

Substrate in data set [2]: COc1cc(C)c(S(=O)(=O)N[C@@H](CC(=O)O)C(=O)N[C@H](Cc2ccc(C(=N)N)cc2)C(=O)N2CCCCC2)c(C)c1C
The description is as §1.

Substrate in data set [3]: C[C@H](CCC(=O)NCCS(=O)(=O)O)[C@H]1CC[C@H]2[C@@H]3[C@@H](O)C[C@@H]4C[C@H](O)CC[C@]4(C)[C@H]3CC[C@]12C
The description is as §1.

Substrate in data set [4]: C[C@H](CCC(=O)NCCS(=O)(=O)O)[C@H]1CC[C@H]2[C@@H]3[C@H](O)C[C@@H]4C[C@H](O)CC[C@]4(C)[C@H]3CC[C@]12C
The data set is described as §1.

Substrate in data set [5]: C[C@]12CC[C@@H]3c4ccc(O)cc4CC[C@H]3[C@@H]1CC[C@@H]2O[C@@H]1O[C@H](C(=O)O)[C@@H](O)[C@H](O)[C@H]1O
Described as §1.

Substrate in data set [6]: C[C@]12CC[C@@H]3c4ccc(OS(=O)(=O)O)cc4CC[C@H]3[C@@H]1CCC2=O
Described as §1.

Substrate in data set [7]: O=C1OC(c2ccc(O)c(S(=O)(=O)O)c2)(c2ccc(O)c(S(=O)(=O)O)c2)c2c(Br)c(Br)c(Br)c(Br)c21
Described as §1.

Substrate in data set [8]: [H][C@@]12CC=C3C[C@@H](OS(=O)(=O)O)CC[C@]3(C)[C@@]1([H])CC[C@]1(C)C(=O)CC[C@@]21[H]
The description is as §1.

Regarding `C[C@@H]1Cc2c(Cl)cc(C(=O)N[C@@H](Cc3ccccc3)C(=O)O)c(O)c2C(=O)O1` [3R14S-OCHRATOXIN A], the Km in data set [1] was 29 µM.

Turning to `C[C@@H]1O[C@@H](O[C@H]2C[C@@H](O)[C@]3(CO)[C@H]4[C@H](O)C[C@]5(C)[C@@H](C6=CC(=O)OC6)CC[C@]5(O)[C@@H]4CC[C@]3(O)C2)[C@H](O)[C@H](O)[C@H]1O` [OUABAIN], the Km in data set [1] was 3000 µM.

B1: Solute carrier organic anion transporter family member 1A1 (Rattus norvegicus) (protein)
chain: MEETEKKIATQEGRLFSKMKVFLLSLTCACLTKSLSGVYMNSMLTQIERQFDISTSVAGLINGSFEIGNLFFIVFVSYFGTKLHRPVVIGIGCVIMGLGCLLMSLPHFFMGRYEYETTISPTGNLSSNSFLCMENRTQTLKPTQDPAECVKEMKSLMWICVMVGNIIRGIGETPIVPLGISYIEDFAKSENSPLYIGILEMGKVAGPIFGLLLGSYCAQIYVDIGSVNTDDLTITPSDTRWVGAWWIGFLVCAGVNILTSIPFFFLPKALPKKGQQENVAVTKDGKVEKYGGQAREENLGITKDFLTFMKRLFCNPIYMLFILTSVLQVNGFINKFTFLPKYLEQQYGKSTAEAIFLIGVYSLPPICLGYLIGGFIMKKFKITVKKAAYLAFCLSVFEYLLFLCHFMLTCDNAAVAGLTTSYKGVQHQLHVESKVLADCNTRCSCSTNTWDPVCGDNGVAYMSACLAGCKKFVGTGTNMVFQDCSCIQSLGNSSAVLGLCKKGPECANRLQYFLILTIIISFIYSLTAIPGYMVFLRCVKSEEKSLGVGLHTFCIRVFAGIPAPVYFGALIDRTCLHWGTLKCGQRGACRMYDINSFRHIYLGLPIALRGSSYLPAFFILILMRKFQFPGDIDSSATDHTEMMLGEKESEHTDVHGSPQVENDGELKTKL
Take B1: the Michaelis constant (Km) in data set [2] was 57 µM; in data set [3], 13 µM; in data set [4], 7 µM; in data set [5] it was 4 µM; in data set [6] it was 11 µM; in data set [7], 3 µM. Further, the Km in data set [8] came to 5 µM.
